Experimental data: patent US20230287120A1 (ALLOGENE THERAPEUTICS, published 2023)
Numbering of substitutions follows the chain as printed.

T1: Flag tagged recombinant DLL3 (Adipogen) (Homo sapiens (Human), UniProt Q9NYJ7 27-492)
T1 construct: Bought reagent; also called Flag-DLL3
T1 sequence: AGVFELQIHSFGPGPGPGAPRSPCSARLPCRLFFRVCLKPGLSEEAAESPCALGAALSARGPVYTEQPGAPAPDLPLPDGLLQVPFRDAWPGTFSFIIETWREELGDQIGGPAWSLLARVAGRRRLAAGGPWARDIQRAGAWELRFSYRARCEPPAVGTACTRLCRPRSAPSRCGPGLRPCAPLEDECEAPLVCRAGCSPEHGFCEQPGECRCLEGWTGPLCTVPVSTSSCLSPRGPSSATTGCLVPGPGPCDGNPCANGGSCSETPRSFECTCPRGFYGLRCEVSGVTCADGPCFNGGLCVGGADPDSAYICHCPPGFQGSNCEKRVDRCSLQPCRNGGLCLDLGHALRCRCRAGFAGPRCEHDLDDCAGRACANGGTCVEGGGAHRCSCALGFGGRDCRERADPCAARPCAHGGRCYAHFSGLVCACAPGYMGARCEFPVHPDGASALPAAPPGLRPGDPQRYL

B1: 7F9 (other)
CAR: EVQLVESGGGLVQPGGSLRLSCAASGFTFSSHDMHWVRQATGKGLEWVSAIGIAGDTYYSGSVKGRFTISRENAKNSLYLQMNSLRAGDTAVYYCARANWGEGAFDIWGQGTMVTVSSGGGGSGGGGSGGGGSGGGGSDIQMTQSPSSLSASVGDRVTITCRASQGISDYLAWYQQKPGKIPKLLIYAASTLQSGVPSRFSGSGSGTDFTLTISSLQPEDVATYYCQKYNSVPLTFGGGTKVEIKTTTPAPRPPTPAPTIASQPLSLRPEACRPAAGGAVHTRGLDFACDIYIWAPLAGTCGVLLLSLVITKRGRKKLLYIFKQPFMRPVQTTQEEDGCSCRFPEEEEGGCELRVKFSRSADAPAYQQGQNQLYNELNLGRREEYDVLDKRRGRDPEMGGKPRRKNPQEGLYNELQKDKMAEAYSEIGMKGERRRGKGHDGLYQGLSTATKDTYDALHMQALPPR
notes: also called anti-DLL3 CAR with 7F9 scFv, on primary T cells
B2: 6D8 (other)
CAR: QITLKESGPTLVKPTQTLTLTCTFSGFSLSTRGVGVGWIRQPPGKALEWLALIYWNDDKRYSPSLQTRLTITKDTPKNQVVLTMTNMDPVDTATYYCARSNWGNWYFALWGRGTLVTVSSGGGGSGGGGSGGGGSGGGGSEIVLTQSPATLSLSPGERATLSCRASQSVSSYLAWYQQKPGQAPRLLIYDAFYRATGIPARFSGSGSGTDFTLTISSLEPEDFAVYYCQHRSNWPITFGQGTRLEIKTTTPAPRPPTPAPTIASQPLSLRPEACRPAAGGAVHTRGLDFACDIYIWAPLAGTCGVLLLSLVITKRGRKKLLYIFKQPFMRPVQTTQEEDGCSCRFPEEEEGGCELRVKFSRSADAPAYQQGQNQLYNELNLGRREEYDVLDKRRGRDPEMGGKPRRKNPQEGLYNELQKDKMAEAYSEIGMKGERRRGKGHDGLYQGLSTATKDTYDALHMQALPPR
notes: also called anti-DLL3 CAR with 6D8 scFv, on primary T cells
B3: 9D3 (other)
CAR: QVQLQESGPGLVKPSETLSLTCTVSDDSISNYYWSWIRQPPGKGLEWIGYIFYSGTTNHNPSLKSRLTISLDKAKNQFSLRLSSVTAADTAVYYCARVFNWGFAFDIWGQGTMVTVSSGGGGSGGGGSGGGGSGGGGSEIVLTQSPGTLSLSPGERATLSCRASQRISRTYLAWYQQKPGQAPRLLIYGASSRATGIPDRFTGSGSGTDFTLTISRLEPEDFAVYYCQQYGTSPLTFGGGTKVEINTTTPAPRPPTPAPTIASQPLSLRPEACRPAAGGAVHTRGLDFACDIYIWAPLAGTCGVLLLSLVITKRGRKKLLYIFKQPFMRPVQTTQEEDGCSCRFPEEEEGGCELRVKFSRSADAPAYQQGQNQLYNELNLGRREEYDVLDKRRGRDPEMGGKPRRKNPQEGLYNELQKDKMAEAYSEIGMKGERRRGKGHDGLYQGLSTATKDTYDALHMQALPPR
notes: also called anti-DLL3 CAR with 9D3 scFv, on primary T cells
B4: 6H1 (other)
CAR: QITLRESGPTLVKPTQTLTLTCTFSGFSLSTSGLGVGWIRQPPGEALEWLALIYWNDDKRYSPSLKSRLSITKDTSKNQVVLIMTNMDPVDTATYYCVHRRIAAPGSVYWGQGTLVTVSSGGGGSGGGGSGGGGSGGGGSDIQMTQSPSSVSASVGDRVTITCRASQGISSWLAWYQQKPGKAPKLLISAASSLQSGVPSRFSGSGSGTDFTLTISSLQPEDFATYYCHQANSFPFTFGQGTKLEIKTTTPAPRPPTPAPTIASQPLSLRPEACRPAAGGAVHTRGLDFACDIYIWAPLAGTCGVLLLSLVITKRGRKKLLYIFKQPFMRPVQTTQEEDGCSCRFPEEEEGGCELRVKFSRSADAPAYQQGQNQLYNELNLGRREEYDVLDKRRGRDPEMGGKPRRKNPQEGLYNELQKDKMAEAYSEIGMKGERRRGKGHDGLYQGLSTATKDTYDALHMQALPPR
notes: also called anti-DLL3 CAR with 6H1 scFv, on primary T cells
B5: 5A2 (other)
CAR: QVQLQESGPGLMKPSETLSLTCTVSGGSISSSYWSCIRQPPGKGLEWIGYIYYSGTTNYNPSLKSRVTLSLDTSKNQFSLRLTSVTAADTAVYYCARVAPTGFWFDYWGQGTLVTVSSGGGGSGGGGSGGGGSGGGGSEIVLTQSPGTLSLSPGERATLSCRASQRVSSRYLAWYQQKPGQAPRLLIYGASSRATGIPDRFSGSGSGTDFTLTISRLEPEEFAVYYCQQYGTSPLTFGGGTKVEIKTTTPAPRPPTPAPTIASQPLSLRPEACRPAAGGAVHTRGLDFACDIYIWAPLAGTCGVLLLSLVITKRGRKKLLYIFKQPFMRPVQTTQEEDGCSCRFPEEEEGGCELRVKFSRSADAPAYQQGQNQLYNELNLGRREEYDVLDKRRGRDPEMGGKPRRKNPQEGLYNELQKDKMAEAYSEIGMKGERRRGKGHDGLYQGLSTATKDTYDALHMQALPPR
notes: also called anti-DLL3 CAR with 5A2 scFv, on primary T cells
B6: 8E11 (other)
CAR: QVQLQESGPGLVKPSETLSLTCTVSGDSISNYYWTWIRQPPGKGLEWIGYIYYSGTTNSNPSLKSRVTVSLDTSKSQFSLNLSSVTAADTAVYYCARVFNRGFAFDIWGQGTMVTVSSGGGGSGGGGSGGGGSGGGGSEIVLTQSPGTLSLSPGERATLSCRASQRISNTYLAWYQQKPGQAPRLLIYGASSRATGIPDRFSGSGSGTDFTLTISRLEPEDFAAYYCQQYDTSPLTFGGGTKVEIKTTTPAPRPPTPAPTIASQPLSLRPEACRPAAGGAVHTRGLDFACDIYIWAPLAGTCGVLLLSLVITKRGRKKLLYIFKQPFMRPVQTTQEEDGCSCRFPEEEEGGCELRVKFSRSADAPAYQQGQNQLYNELNLGRREEYDVLDKRRGRDPEMGGKPRRKNPQEGLYNELQKDKMAEAYSEIGMKGERRRGKGHDGLYQGLSTATKDTYDALHMQALPPR
notes: also called anti-DLL3 CAR with 8E11 scFv, on primary T cells
B7: 11H7 (other)
CAR: QVQLQQWGAGLLKPSETLSLTCAVYGGSFSAYYWNWIRQPPGKGLEWIGEINHSGSTNYNPSLKSRVTISVDTSKNQFSLNLTSLTAADTAVYYCARGLDSSGWYPFDYWGQGTLVTVSSGGGGSGGGGSGGGGSGGGGSDIQMTQSPSSVSASVGDRVTITCRASQGISSWLAWYQQKPGKAPKLLIYAASSLQSGVPSRFSGSGSGTDFTLTISSLQPEDFATYYCQQADSFPFTFGPGTKVDIKTTTPAPRPPTPAPTIASQPLSLRPEACRPAAGGAVHTRGLDFACDIYIWAPLAGTCGVLLLSLVITKRGRKKLLYIFKQPFMRPVQTTQEEDGCSCRFPEEEEGGCELRVKFSRSADAPAYQQGQNQLYNELNLGRREEYDVLDKRRGRDPEMGGKPRRKNPQEGLYNELQKDKMAEAYSEIGMKGERRRGKGHDGLYQGLSTATKDTYDALHMQALPPR
notes: also called anti-DLL3 CAR with 11H7 scFv, on primary T cells
B8: 4F9 (other)
CAR: QVQLQQWGAGLLKPSETLSLTCAVYGGSFSGYYWTWIRQPPGKGLEWIGEITHSGSTNYNPSLKSRVSISVDTSKNQFSLKLSSVTAADTAVYYCARGEYGSGSRFDYWGQGTLVTVSSGGGGSGGGGSGGGGSGGGGSAIQMTQSPSSLSASVGDRVAITCRASQGIRDDLGWYQQKPGKAPKLLIYAASSLQSGVPSRFSGSGSDTDFTLTISSLQPEDFATYYCLQDYDYPLTFGGGTKVEIKTTTPAPRPPTPAPTIASQPLSLRPEACRPAAGGAVHTRGLDFACDIYIWAPLAGTCGVLLLSLVITKRGRKKLLYIFKQPFMRPVQTTQEEDGCSCRFPEEEEGGCELRVKFSRSADAPAYQQGQNQLYNELNLGRREEYDVLDKRRGRDPEMGGKPRRKNPQEGLYNELQKDKMAEAYSEIGMKGERRRGKGHDGLYQGLSTATKDTYDALHMQALPPR
notes: also called anti-DLL3 CAR with 4F9 scFv, on primary T cells
B9: 3E4 (other)
CAR: B8 CAR with T35S, T52I, T57S, A96S, G205R
notes: also called anti-DLL3 CAR with 3E4 scFv, on primary T cells
B10: 4G9 (other)
CAR: B8 CAR with T35S, I160L
notes: also called anti-DLL3 CAR with 4G9 scFv, on primary T cells
B11: 26C8 (other)
CAR: QVQLQESGPGLVKPSETLSLTCTVSDNSISNYYWSWIRQPPGKGLEWIAYIYYSGTTNYNPSLKSRVTISLDTSKNQFSLQLSSVTAADAAVYYCARVFHWGFAFDIWGQGTMVTVSSGGGGSGGGGSGGGGSGGGGSEIVLTQSPGTLSLSPGERATLSCRASQRVSNTYLAWYQQNPGQAPRLLIYGASSRATGIPDRFSGSGSGTDFTLTISRLEPEDFAVYYCQQYGTSPLTFGGGTKVEIKTTTPAPRPPTPAPTIASQPLSLRPEACRPAAGGAVHTRGLDFACDIYIWAPLAGTCGVLLLSLVITKRGRKKLLYIFKQPFMRPVQTTQEEDGCSCRFPEEEEGGCELRVKFSRSADAPAYQQGQNQLYNELNLGRREEYDVLDKRRGRDPEMGGKPRRKNPQEGLYNELQKDKMAEAYSEIGMKGERRRGKGHDGLYQGLSTATKDTYDALHMQALPPR
notes: also called anti-DLL3 CAR with 26C8 scFv, on primary T cells

Biological target: T1, Flag tagged recombinant DLL3 (Adipogen)
Test: flow cytometry, percent of T cells that recognise recombinant DLL3, Donor 116
Procedure: (§1) To determine the percentage of T cells that were successfully transduced with DLL3 CAR, T cells were first incubated with 1 ug/ml Flag tagged recombinant DLL3 (Adipogen) in PBS+1% BSA for 20 minutes at 4 C.

Transduction efficiency | Binder
42.2% | B1
32.4% | B2
52.4% | B3
5.81% | B4
49.1% | B5
39.1% | B6
52.4% | B7
67.5% | B8
58.3% | B9
48.9% | B10
48.9% | B11

Biological target: T1, Flag tagged recombinant DLL3 (Adipogen)
Test: flow cytometry, percent of T cells that recognise recombinant DLL3, Donor 117
Procedure: as §1

Transduction efficiency | Binder
37.4% | B1
34.8% | B2
50.8% | B3
47.4% | B5
41.4% | B6
46.9% | B11

Biological target: T1, Flag tagged recombinant DLL3 (Adipogen)
Test: flow cytometry, percent of T cells that recognise recombinant DLL3, Donor 419
Procedure: as §1

Transduction efficiency | Binder
2.7% | B4
40.2% | B7
49.4% | B8
46.4% | B9
35.2% | B10

Biological target: T1, Flag tagged recombinant DLL3 (Adipogen)
Test: flow cytometry, primary T cells with the CAR, 1 ug/ml Flag tagged recombinant DLL3, PE anti-Flag
Procedure: as §1

Rec-DLL3 gate, percent of live CD3+ cells | Binder
42.2% | B1
32.4% | B2
52.4% | B3
49.1% | B5
39.1% | B6
48.9% | B11
